# Paper PMC5543139
# Molecular target: glucagon receptor on CHO-GCGR cells (human) (UniProt P47871)
# Assay: flow cytometry on live cells
# Details: D-PBS pH 7.4, 5 mM MgCl2, 4.5 g/L glucose, 0.1 mg/mL yeast tRNA, 1 mg/L BSA; 4 C, 1 h (45 min in Results for Kd)
# Chain of glucagon receptor on CHO-GCGR cells (human) (P47871 26-477): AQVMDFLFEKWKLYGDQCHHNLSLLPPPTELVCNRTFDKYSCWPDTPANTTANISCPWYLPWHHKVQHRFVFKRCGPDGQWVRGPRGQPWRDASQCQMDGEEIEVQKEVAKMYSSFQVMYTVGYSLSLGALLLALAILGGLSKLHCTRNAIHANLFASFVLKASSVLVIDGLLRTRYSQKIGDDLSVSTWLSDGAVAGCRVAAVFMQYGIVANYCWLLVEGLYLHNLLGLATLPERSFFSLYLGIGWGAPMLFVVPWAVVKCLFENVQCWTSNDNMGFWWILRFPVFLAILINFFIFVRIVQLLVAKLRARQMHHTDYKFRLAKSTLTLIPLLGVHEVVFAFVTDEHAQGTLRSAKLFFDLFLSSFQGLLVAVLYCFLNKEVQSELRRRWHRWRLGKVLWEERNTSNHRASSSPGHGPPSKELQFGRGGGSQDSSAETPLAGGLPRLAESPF
sequence,measurement,value
ATCCAGAGTGACGCAGCAGATAAGTAGGTATCCGTTTGAAAAACTTTTCTGACCGTCCGACTATGGACACGGTGGCTTAGT [GR-3],Kd,52.7 nM
